Data as given in US20220259593A1, “CONTROL OF MAMMALIAN GENE DOSAGE USING CRISPR” (The Regents of the University of California, priority 2019, published 2022).
Where a chain is given by its changes, count along the chain named.

B1: cr305 (nucleic acid)
guide: GTTTAAGAGCTAAGCTGGAAACAGCATAGCAAGGTTAAATAAGGCTAGTCCGTTATCAACTTGAAAAAGTGGCCCCGAGTCGGGGCT
modifications: listed as DNA, chemistry not fully specified
B2: cr413 (nucleic acid)
guide: B1 guide with G33C, G34T, C74A, C75A, G83T, G84T
modifications: listed as DNA, chemistry not fully specified
B3: cr448 (nucleic acid)
guide: B1 guide with G33C, G34T, G44C, C50G, C74A, G84T
modifications: listed as DNA, chemistry not fully specified
B4: cr261 (nucleic acid)
guide: B1 guide with T53G, C74A, G84T
modifications: listed as DNA, chemistry not fully specified
B5: cr382 (nucleic acid)
guide: B1 guide with G43C, C51G, C74A, G84T
modifications: listed as DNA, chemistry not fully specified
B6: cr462 (nucleic acid)
guide: B1 guide with G33A, G34A, C74A, G84T
modifications: listed as DNA, chemistry not fully specified
B7: cr336 (nucleic acid)
guide: B1 guide with G34T, C45G, G48C, C60A, G69T, C74A, G77C, C81G, G84T
modifications: listed as DNA, chemistry not fully specified
B8: cr841 (nucleic acid)
guide: B1 guide with A59C, T70G, C74A, G84T
modifications: listed as DNA, chemistry not fully specified
B9: cr541 (nucleic acid)
guide: B1 guide with G34T, G43A, C45G, G48C, C51T, C73T, C74A, G84T, G85A
modifications: listed as DNA, chemistry not fully specified
B10: cr834 (nucleic acid)
guide: B1 guide with A65G, C74A, G84T
modifications: listed as DNA, chemistry not fully specified
B11: cr864 (nucleic acid)
guide: B1 guide with G29A, G34T, A41T, C74A, G84T
modifications: listed as DNA, chemistry not fully specified
B12: cr418 (nucleic acid)
guide: B1 guide with T61A, A68T, C74A, G84T
modifications: listed as DNA, chemistry not fully specified
B13: cr186 (nucleic acid)
guide: B1 guide with C60G, G69C, C74A, G84T
modifications: listed as DNA, chemistry not fully specified
B14: cr042 (nucleic acid)
guide: B1 guide with T3G, T4G, G34T, C74A, G84T
modifications: listed as DNA, chemistry not fully specified
B15: cr031 (nucleic acid)
guide: B1 guide with T3A, T4A, G34T, C74A, G84T
modifications: listed as DNA, chemistry not fully specified
B16: cr384 (nucleic acid)
guide: B1 guide with G34T, G43A, G44T, C50A, C51T, C74A, G84T
modifications: listed as DNA, chemistry not fully specified
B17: cr504 (nucleic acid)
guide: B1 guide with T62G, A67C, C74A, G84T
modifications: listed as DNA, chemistry not fully specified
B18: cr170 (nucleic acid)
guide: B1 guide with G72A, C74A, G84T, C86T
modifications: listed as DNA, chemistry not fully specified
B19: cr963 (nucleic acid)
guide: B1 guide with G34T, G43C, C51G, C74G, C76T, G82A, G84C
modifications: listed as DNA, chemistry not fully specified
B20: cr324 (nucleic acid)
guide: B1 guide with G34T, G43C, C51G, T61C, A68G, C74A, G84T
modifications: listed as DNA, chemistry not fully specified
B21: cr389 (nucleic acid)
guide: B1 guide with G34T, G43A, G44A, C50T, C51T, C74A, G84T
modifications: listed as DNA, chemistry not fully specified
B22: cr954 (nucleic acid)
guide: B1 guide with C60A, G69T, C74A, G84T
modifications: listed as DNA, chemistry not fully specified
B23: cr987 (nucleic acid)
guide: B1 guide with G34T, T49G, A65T, C74A, G84T
modifications: listed as DNA, chemistry not fully specified
B24: cr731 (nucleic acid)
guide: B1 guide with C73T, C74A, G84T, G85A
modifications: listed as DNA, chemistry not fully specified
B25: cr507 (nucleic acid)
guide: B1 guide with G34T, G43T, C51A, C74A, C76A, G82T, G84T
modifications: listed as DNA, chemistry not fully specified
B26: cr519 (nucleic acid)
guide: B1 guide with C74G, G84C
modifications: listed as DNA, chemistry not fully specified
B27: cr951 (nucleic acid)
guide: B1 guide with G34T, A65G, C74T, G84A
modifications: listed as DNA, chemistry not fully specified
B28: cr214 (nucleic acid)
guide: B1 guide with G34T, A65G, C74A, C75A, G83T, G84T
modifications: listed as DNA, chemistry not fully specified
B29: cr263 (nucleic acid)
guide: B1 guide with G34T, A66C, C74A, G84T
modifications: listed as DNA, chemistry not fully specified
B30: cr964 (nucleic acid)
guide: B1 guide with A31T, G34T, A65G, C74A, G84T
modifications: listed as DNA, chemistry not fully specified

The molecules below were run on K562 CRISPRi cells (assay: Constant region variant library pooled growth screen, K562). Conditions: sgRNA constant region variant; activity relative to unmodified constant region cr995; mean CRISPRi activity.
Format: cell-based, human
How it was run: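 Relative activity expresses each targeting sequence:constant region pair's phenotype over that of the unmodified constant region. Pooled growth screen ran in K562 CRISPRi cells in duplicate spinner-flask replicates, with puromycin selection and 4–8 days' growth at >2000× coverage; library paired variants with 36 targeting sequences.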
B1 was tested, and the Mean relative activity was 0.02073.
For B2, the Mean relative activity was 0.01427.
In the case of B3, the Mean relative activity is reported as 0.01746.
Work on B4 yielded a Mean relative activity of 0.01441.
B5 gave a Mean relative activity of 0.01715.
With B6 the Mean relative activity was 0.01488.
B7 was tested, and the Mean relative activity was 0.01616.
For B8, the Mean relative activity was 0.01636.
For B9, the Mean relative activity was 0.01856.
With B10 the Mean relative activity was 0.01861.
With B11 the Mean relative activity was 0.01678.
B12 showed a Mean relative activity of 0.02069.
Molecule B13 has a Mean relative activity of 0.0199.
B14 gave a Mean relative activity of 0.0164.
With B15 the Mean relative activity was 0.01677.
B16 showed a Mean relative activity of 0.01438.
With B17 the Mean relative activity was 0.01685.
For B18, the Mean relative activity was 0.01501.
B19 was tested, and the Mean relative activity was 0.01551.
B20 showed a Mean relative activity of 0.01711.
Molecule B21 has a Mean relative activity of 0.01944.
B22 showed a Mean relative activity of 0.01751.
B23 was tested, and the Mean relative activity was 0.01815.
B24 gave a Mean relative activity of 0.01505.
B25 showed a Mean relative activity of 0.01954.
In the case of B26, the Mean relative activity is reported as 0.01933.

Same assay, conditions: sgRNA constant region variants; activity relative to the original, un-modified constant region cr995
Molecule B27 has a Mean relative activity of 1.034.
In the case of B28, the Mean relative activity is reported as 1.033.
In the case of B29, the Mean relative activity is reported as 1.033.
B30 gave a Mean relative activity of 1.033.
